# Assay results: patent US20110020432A1, “COMPOSITIONS AND METHODS OF USE FOR POST-RADIATION PROTECTION” (TERAPIO CORPORATION, priority 2009, published 2011)
# What was measured:
# [1] = reported in the scientific literature; cited from earlier work
# mice = conditions: whole animal studies; reported DRF; cited from earlier work
# C57BL6/albino mice = experiment: Survival after whole body X-irradiation, oral RLIP76 proteoliposomes (dose and time response); type: in vivo
# Procedure: In order to investigate whether RLIP76 could be effective when delivered more than 24 hours after radiation exposure, a series of studies were conducted to explore the protective benefit of RLIP76 when given at varying doses, exposure levels, and times after exposure. All mice were C57BL6/albino strain, the strain most commonly used for radiation effect models. Exposure was delivered by whole body X-irradiation with a Varian Clinac Linear accelerator (2100C) at the Texas Cancer Center (Arlington, Tex.). A 6-MeV photon beam was used at a rate of 400 cGy/minute. Mice were isolated to one side of their cage on top of 1.5 cm of superflab bolus and the field of treatment centered on them. Total dose was split into two fractions, anterior and posterior, by rotating the accelerator gantry 180 degrees. Unless otherwise specified, all experiments were performed on six mice per group.
# Dose and time dependency was investigated over a range of radiation exposures. Initially, six groups of wild-type mice were exposed to 500 cGy of radiation, and then treated with no RLIP76 proteoliposomes (control) or various dosages of RLIP76 proteoliposomes given at various times after the radiation exposure. […]
# [2] = tested on: wild-type (+/+) and homozygous (−/−) RIP1 mice; experiment: Survival of wild-type and RIP1 knockout mice after X-irradiation, RLIP76 liposomes i.p.; type: in vivo
# Procedure: FIG. 5. Effect of RLIP76 on survival after higher doses of X irradiation. Four wild-type (+/+) RIP1 mice and four homozygous (−/−) mice were each exposed to 750 cGy X irradiation and treated with control liposomes administered by i.p. injection (triangles, homozygous RIP1 mice; diamonds, wild-type RIP mice), or 400 μg RLIP76 liposomes administered by i.p. injection (squares, homozygous RIP1 mice; circles, wild-type RIP1 mice), given 12 hours after exposure.
# As disclosed in U.S. Ser. No. 11/741,447, C57B mice that carry both copies of the RIP1 (mouse version of RLIP76) gene (wild-type; +/+), one copy of the RIP1 gene (heterozygous; +/−), or no copies of the RIP1 gene (homozygous; −/−) were created using Cre-Lox technology that can selectively suppress genes (Lexicon Genetics, Incorporated, The Woodlands, Tex.). Western blot analysis of tissues from homozygous RIP 1 knockout mice was performed after i.p. injection of RLIP76-liposomes. […]
# If loss of RIP1 was the major determining factor in this acquired radiation sensitivity, replacement of this deficit should reverse radiation […]. […] Liposomes were prepared in sufficient quantities and administered via intraperitoneal (i.p.) injection to homozygous RIP1 mice. […]
molecule,measurement,setting,value
"Cc1cc(C(C)(C)C)c(O)c(C(C)(C)C)c1 [BHT, butylated hydroxytoluene]",radioprotective effect on its own,[1],radioprotective effect
"CC1=NN(c2ccccc2)C(=O)C1 [edaravone, 3 methyl-1-phenyl-2-pyrazolin-5-one]",dose-reduction factor (DRF),mice,1.3
"CC1(C)CC(O)CC(C)(C)N1[O] [tempol, 4-hydroxy-2,2,6,6-tetramethylpiperidinyloxy]",dose-reduction factor (DRF),mice,1.3
"RLIP76 protein: ubiquitous multi-specific efflux pump protein; human sequence of 655 amino acids, GenBank NP—006779; recombinant (protein, UniProt Q15311 2-655, looked up) RalA-binding protein 1: TECFLPPTSSPSEHRRVEHGSGLTRTPSSEEISPTKFPGLYRTGEPSPPHDILHEPPDVVSDDEKDHGKKKGKFKKKEKRTEGYAAFQEDSSGDEAESPSKMKRSKGIHVFKKPSFSKKKEKDFKIKEKPKEEKHKEEKHKEEKHKEKKSKDLTAADVVKQWKEKKKKKKPIQEPEVPQIDVPNLKPIFGIPLADAVERTMMYDGIRLPAVFRECIDYVEKYGMKCEGIYRVSGIKSKVDELKAAYDREESTNLEDYEPNTVASLLKQYLRDLPENLLTKELMPRFEEACGRTTETEKVQEFQRLLKELPECNYLLISWLIVHMDHVIAKELETKMNIQNISIVLSPTVQISNRVLYVFFTHVQELFGNVVLKQVMKPLRWSNMATMPTLPETQAGIKEEIRRQEFLLNCLHRDLQGGIKDLSKEERLWEVQRILTALKRKLREAKRQECETKIAQEIASLSKEDVSKEEMNENEEVINILLAQENEILTEQEELLAMEQFLRRQIASEKEEIERLRAEIAEIQSRQQHGRSETEEYSSESESESEDEEELQIILEDLQRQNEELEIKNNHLNQAIHEEREAIIELRVQLRLLQMQRAKAEQQAQEDEEPEWRGGAVQPPRDGVLEPKAAKEQPKAGKEPAKPSPSRDRKETSI",rescue with delayed first dose,C57BL6/albino mice; initial dose given a full 24 hours or more after the radiation exposure,significant rescue
same,increase in survival,"C57BL6/albino mice; wild-type mice, radiation dose that normally results in complete lethality by day 30 (500 cGy), 2 doses of 100 micrograms, oral",200%
same,survival as compared with RIP1+/+ mice,"[2]; RIP1−/− mice supplemented with RLIP76, 750 cGy",significantly improved survival
same,reversal of radiation sensitivity,"[2]; mice genetically deficient in RLIP76 protein, supplementation by intravenous or oral administration",can be reversed
